Experimental findings from patent publication US20140087995A1 (published 2014) are described below.

Numbered stars: 1 amine (or outer) side, 2 acyl side, 3 side chain; on linkers, the order of the positions; unused ones are H or OH. Bridge positions count the residues as written; N and C are the ends. Side chains are listed from the residue outwards. Ends that are not written are not given here. * marks the point of attachment. C20 diacid = O=C(O)CCCCCCCCCCCCCCCCCCC(=O)*; γGlu = O=C(O)[C@H](CCC(=O)[*:2])N[*:1]; AEEA = NCCOCCOCC(=O)O

Usually IC50 stands for the midpoint of a concentration-inhibition curve.

Assay [1] deals with T1, rat calcitonin receptor (rat, UniProt P32214 25-516).
T1 construct: whole, on cells; Cell membranes of transiently transfected BHK tk'ts 13 cells (Assay VIII); also called rCTR; rCT
T1 sequence (looked up): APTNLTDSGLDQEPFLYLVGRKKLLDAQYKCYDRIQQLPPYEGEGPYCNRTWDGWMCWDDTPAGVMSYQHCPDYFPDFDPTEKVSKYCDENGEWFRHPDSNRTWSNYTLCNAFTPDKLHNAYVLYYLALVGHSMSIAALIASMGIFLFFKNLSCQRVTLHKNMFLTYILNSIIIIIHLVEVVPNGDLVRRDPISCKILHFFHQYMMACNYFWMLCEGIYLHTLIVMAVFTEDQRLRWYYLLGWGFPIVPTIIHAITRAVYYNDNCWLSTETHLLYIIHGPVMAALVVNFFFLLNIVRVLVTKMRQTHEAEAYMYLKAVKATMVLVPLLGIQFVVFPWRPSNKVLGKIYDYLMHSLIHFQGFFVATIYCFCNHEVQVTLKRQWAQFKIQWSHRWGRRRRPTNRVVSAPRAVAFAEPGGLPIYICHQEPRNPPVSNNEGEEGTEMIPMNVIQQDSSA
As to the kind of experiment: SPA competition vs 125I-calcitonin, membranes with rat CTR (Assay VIII).

Assay [2] has as its target T1, rat calcitonin receptor. As to the kind of experiment: ratio IC50 rat calcitonin receptor / IC50 rat amylin receptor.
For assay [3], the target named is T2, rat amylin receptor (rat calcitonin receptor + rat RAMP 3) (rat, UniProt P32214 25-516; Q9JJ73 23-147).
T2 construct: whole, on cells; Cell membranes of transiently transfected BHK tk'ts 13 cells (Assay VI); also called rAmylin-R; rat amylin 3(a) receptor
T2 sequence (looked up) 1: T1 sequence (looked up)
T2 sequence (looked up) 2: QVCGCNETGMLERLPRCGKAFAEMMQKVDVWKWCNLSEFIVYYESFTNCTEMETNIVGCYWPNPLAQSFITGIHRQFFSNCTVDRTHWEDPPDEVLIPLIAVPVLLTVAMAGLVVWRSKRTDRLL
The assay is described as follows: SPA competition vs 125I-rat amylin, membranes with rat CTR + rat RAMP3 (Assay VI).

B1: N^ε1-[2-[2-[2-[[(4S)-4-carboxy-4-(19-carboxynonadecanoylamino)butanoyl]amino]ethoxy]ethoxy]acetyl]-[His14,Arg17,Pro21,Pro27,Pro31]-h-amylin (peptide)
peptide: K([AEEA-γGlu-C20 diacid])CNTATCATQRLAHFLRHSSPNFGAIPSSTPVGSNTY-NH2
modifications: disulfide 2-7; N-terminus assumed
SMILES: CC[C@H](C)[C@H](NC(=O)[C@H](C)NC(=O)CNC(=O)[C@H](Cc1ccccc1)NC(=O)[C@H](CC(N)=O)NC(=O)[C@@H]1CCCN1C(=O)[C@H](CO)NC(=O)[C@H](CO)NC(=O)[C@H](Cc1c[nH]cn1)NC(=O)[C@H](CCCNC(=N)N)NC(=O)[C@H](CC(C)C)NC(=O)[C@H](Cc1ccccc1)NC(=O)[C@H](Cc1c[nH]cn1)NC(=O)[C@H](C)NC(=O)[C@H](CC(C)C)NC(=O)[C@H](CCCNC(=N)N)NC(=O)[C@H](CCC(N)=O)NC(=O)[C@@H](NC(=O)[C@H](C)NC(=O)[C@@H]1CSSC[C@H](NC(=O)[C@@H](N)CCCCNC(=O)COCCOCCNC(=O)CC[C@H](NC(=O)CCCCCCCCCCCCCCCCCCC(=O)O)C(=O)O)C(=O)N[C@@H](CC(N)=O)C(=O)N[C@@H]([C@@H](C)O)C(=O)N[C@@H](C)C(=O)N[C@@H]([C@@H](C)O)C(=O)N1)[C@@H](C)O)C(=O)N1CCC[C@H]1C(=O)N[C@@H](CO)C(=O)N[C@@H](CO)C(=O)N[C@H](C(=O)N1CCC[C@H]1C(=O)N[C@H](C(=O)NCC(=O)N[C@@H](CO)C(=O)N[C@@H](CC(N)=O)C(=O)N[C@H](C(=O)N[C@@H](Cc1ccc(O)cc1)C(N)=O)[C@@H](C)O)C(C)C)[C@@H](C)O
notes: Acylated analogue of human amylin; also called compound 61
Turning to B1, the IC50 with rat calcitonin receptor [1] was found to be 33.4 nM; in assay [3], 0.842 nM. The “Ratio rCT/rAmylin binding” value with rat calcitonin receptor [2] was 39.7.

B2: N^ε1-[(4S)-4-carboxy-4-(19-carboxynonadecanoylamino)butanoyl]-[Glu14,Arg17,Pro21,Pro27,Arg35]-h-amylin (peptide)
peptide: K([γGlu-C20 diacid])CNTATCATQRLAEFLRHSSPNFGAIPSSTNVGSRTY-NH2
modifications: disulfide 2-7; N-terminus assumed
SMILES: CC[C@H](C)[C@H](NC(=O)[C@H](C)NC(=O)CNC(=O)[C@H](Cc1ccccc1)NC(=O)[C@H](CC(N)=O)NC(=O)[C@@H]1CCCN1C(=O)[C@H](CO)NC(=O)[C@H](CO)NC(=O)[C@H](Cc1c[nH]cn1)NC(=O)[C@H](CCCNC(=N)N)NC(=O)[C@H](CC(C)C)NC(=O)[C@H](Cc1ccccc1)NC(=O)[C@H](CCC(=O)O)NC(=O)[C@H](C)NC(=O)[C@H](CC(C)C)NC(=O)[C@H](CCCNC(=N)N)NC(=O)[C@H](CCC(N)=O)NC(=O)[C@@H](NC(=O)[C@H](C)NC(=O)[C@@H]1CSSC[C@H](NC(=O)[C@@H](N)CCCCNC(=O)CC[C@H](NC(=O)CCCCCCCCCCCCCCCCCCC(=O)O)C(=O)O)C(=O)N[C@@H](CC(N)=O)C(=O)N[C@@H]([C@@H](C)O)C(=O)N[C@@H](C)C(=O)N[C@@H]([C@@H](C)O)C(=O)N1)[C@@H](C)O)C(=O)N1CCC[C@H]1C(=O)N[C@@H](CO)C(=O)N[C@@H](CO)C(=O)N[C@H](C(=O)N[C@@H](CC(N)=O)C(=O)N[C@H](C(=O)NCC(=O)N[C@@H](CO)C(=O)N[C@@H](CCCNC(=N)N)C(=O)N[C@H](C(=O)N[C@@H](Cc1ccc(O)cc1)C(N)=O)[C@@H](C)O)C(C)C)[C@@H](C)O
notes: Acylated analogue of human amylin; also called compound 51
As for B2, the IC50 in the assay with rat calcitonin receptor [1] is 62 nM; in assay [3] it was 0.523 nM. In addition, the “Ratio rCT/rAmylin binding” value with rat calcitonin receptor [2] is 119.

B3: N^ε1-[(4S)-4-carboxy-4-(19-carboxynonadecanoylamino)butanoyl]-[Arg17,Pro21,Pro27,His35]-h-amylin (peptide)
peptide: K([γGlu-C20 diacid])CNTATCATQRLANFLRHSSPNFGAIPSSTNVGSHTY-NH2
modifications: disulfide 2-7; N-terminus assumed
SMILES: CC[C@H](C)[C@H](NC(=O)[C@H](C)NC(=O)CNC(=O)[C@H](Cc1ccccc1)NC(=O)[C@H](CC(N)=O)NC(=O)[C@@H]1CCCN1C(=O)[C@H](CO)NC(=O)[C@H](CO)NC(=O)[C@H](Cc1c[nH]cn1)NC(=O)[C@H](CCCNC(=N)N)NC(=O)[C@H](CC(C)C)NC(=O)[C@H](Cc1ccccc1)NC(=O)[C@H](CC(N)=O)NC(=O)[C@H](C)NC(=O)[C@H](CC(C)C)NC(=O)[C@H](CCCNC(=N)N)NC(=O)[C@H](CCC(N)=O)NC(=O)[C@@H](NC(=O)[C@H](C)NC(=O)[C@@H]1CSSC[C@H](NC(=O)[C@@H](N)CCCCNC(=O)CC[C@H](NC(=O)CCCCCCCCCCCCCCCCCCC(=O)O)C(=O)O)C(=O)N[C@@H](CC(N)=O)C(=O)N[C@@H]([C@@H](C)O)C(=O)N[C@@H](C)C(=O)N[C@@H]([C@@H](C)O)C(=O)N1)[C@@H](C)O)C(=O)N1CCC[C@H]1C(=O)N[C@@H](CO)C(=O)N[C@@H](CO)C(=O)N[C@H](C(=O)N[C@@H](CC(N)=O)C(=O)N[C@H](C(=O)NCC(=O)N[C@@H](CO)C(=O)N[C@@H](Cc1c[nH]cn1)C(=O)N[C@H](C(=O)N[C@@H](Cc1ccc(O)cc1)C(N)=O)[C@@H](C)O)C(C)C)[C@@H](C)O
notes: Acylated analogue of human amylin; also called compound 60
Take B3: the IC50 with rat calcitonin receptor [1] is 26.3 nM; in assay [3], 0.215 nM. Moreover, in the assay with rat calcitonin receptor [2], the “Ratio rCT/rAmylin binding” value is 122.

B4: N^ε1-[(4S)-4-carboxy-4-(19-carboxynonadecanoylamino)butanoyl]-[His14,Arg17,Pro21,Pro27,Pro31]-h-amylin (peptide)
peptide: K([γGlu-C20 diacid])CNTATCATQRLAHFLRHSSPNFGAIPSSTPVGSNTY-NH2
modifications: disulfide 2-7; N-terminus assumed
SMILES: CC[C@H](C)[C@H](NC(=O)[C@H](C)NC(=O)CNC(=O)[C@H](Cc1ccccc1)NC(=O)[C@H](CC(N)=O)NC(=O)[C@@H]1CCCN1C(=O)[C@H](CO)NC(=O)[C@H](CO)NC(=O)[C@H](Cc1c[nH]cn1)NC(=O)[C@H](CCCNC(=N)N)NC(=O)[C@H](CC(C)C)NC(=O)[C@H](Cc1ccccc1)NC(=O)[C@H](Cc1c[nH]cn1)NC(=O)[C@H](C)NC(=O)[C@H](CC(C)C)NC(=O)[C@H](CCCNC(=N)N)NC(=O)[C@H](CCC(N)=O)NC(=O)[C@@H](NC(=O)[C@H](C)NC(=O)[C@@H]1CSSC[C@H](NC(=O)[C@@H](N)CCCCNC(=O)CC[C@H](NC(=O)CCCCCCCCCCCCCCCCCCC(=O)O)C(=O)O)C(=O)N[C@@H](CC(N)=O)C(=O)N[C@@H]([C@@H](C)O)C(=O)N[C@@H](C)C(=O)N[C@@H]([C@@H](C)O)C(=O)N1)[C@@H](C)O)C(=O)N1CCC[C@H]1C(=O)N[C@@H](CO)C(=O)N[C@@H](CO)C(=O)N[C@H](C(=O)N1CCC[C@H]1C(=O)N[C@H](C(=O)NCC(=O)N[C@@H](CO)C(=O)N[C@@H](CC(N)=O)C(=O)N[C@H](C(=O)N[C@@H](Cc1ccc(O)cc1)C(N)=O)[C@@H](C)O)C(C)C)[C@@H](C)O
notes: Acylated analogue of human amylin; also called compound 62
On to B4, for which the IC50 came out at 18 nM in the assay with rat calcitonin receptor [1] and 0.42 nM in assay [3]. Further, in the assay with rat calcitonin receptor [2], the “Ratio rCT/rAmylin binding” value turned out to be 42.8.
